The assay deals with YFP-tagged CREB-binding protein (UniProt Q92793). The assay can be described thus: MST.
Chain of UniProt Q92793 (Q92793 whole entry): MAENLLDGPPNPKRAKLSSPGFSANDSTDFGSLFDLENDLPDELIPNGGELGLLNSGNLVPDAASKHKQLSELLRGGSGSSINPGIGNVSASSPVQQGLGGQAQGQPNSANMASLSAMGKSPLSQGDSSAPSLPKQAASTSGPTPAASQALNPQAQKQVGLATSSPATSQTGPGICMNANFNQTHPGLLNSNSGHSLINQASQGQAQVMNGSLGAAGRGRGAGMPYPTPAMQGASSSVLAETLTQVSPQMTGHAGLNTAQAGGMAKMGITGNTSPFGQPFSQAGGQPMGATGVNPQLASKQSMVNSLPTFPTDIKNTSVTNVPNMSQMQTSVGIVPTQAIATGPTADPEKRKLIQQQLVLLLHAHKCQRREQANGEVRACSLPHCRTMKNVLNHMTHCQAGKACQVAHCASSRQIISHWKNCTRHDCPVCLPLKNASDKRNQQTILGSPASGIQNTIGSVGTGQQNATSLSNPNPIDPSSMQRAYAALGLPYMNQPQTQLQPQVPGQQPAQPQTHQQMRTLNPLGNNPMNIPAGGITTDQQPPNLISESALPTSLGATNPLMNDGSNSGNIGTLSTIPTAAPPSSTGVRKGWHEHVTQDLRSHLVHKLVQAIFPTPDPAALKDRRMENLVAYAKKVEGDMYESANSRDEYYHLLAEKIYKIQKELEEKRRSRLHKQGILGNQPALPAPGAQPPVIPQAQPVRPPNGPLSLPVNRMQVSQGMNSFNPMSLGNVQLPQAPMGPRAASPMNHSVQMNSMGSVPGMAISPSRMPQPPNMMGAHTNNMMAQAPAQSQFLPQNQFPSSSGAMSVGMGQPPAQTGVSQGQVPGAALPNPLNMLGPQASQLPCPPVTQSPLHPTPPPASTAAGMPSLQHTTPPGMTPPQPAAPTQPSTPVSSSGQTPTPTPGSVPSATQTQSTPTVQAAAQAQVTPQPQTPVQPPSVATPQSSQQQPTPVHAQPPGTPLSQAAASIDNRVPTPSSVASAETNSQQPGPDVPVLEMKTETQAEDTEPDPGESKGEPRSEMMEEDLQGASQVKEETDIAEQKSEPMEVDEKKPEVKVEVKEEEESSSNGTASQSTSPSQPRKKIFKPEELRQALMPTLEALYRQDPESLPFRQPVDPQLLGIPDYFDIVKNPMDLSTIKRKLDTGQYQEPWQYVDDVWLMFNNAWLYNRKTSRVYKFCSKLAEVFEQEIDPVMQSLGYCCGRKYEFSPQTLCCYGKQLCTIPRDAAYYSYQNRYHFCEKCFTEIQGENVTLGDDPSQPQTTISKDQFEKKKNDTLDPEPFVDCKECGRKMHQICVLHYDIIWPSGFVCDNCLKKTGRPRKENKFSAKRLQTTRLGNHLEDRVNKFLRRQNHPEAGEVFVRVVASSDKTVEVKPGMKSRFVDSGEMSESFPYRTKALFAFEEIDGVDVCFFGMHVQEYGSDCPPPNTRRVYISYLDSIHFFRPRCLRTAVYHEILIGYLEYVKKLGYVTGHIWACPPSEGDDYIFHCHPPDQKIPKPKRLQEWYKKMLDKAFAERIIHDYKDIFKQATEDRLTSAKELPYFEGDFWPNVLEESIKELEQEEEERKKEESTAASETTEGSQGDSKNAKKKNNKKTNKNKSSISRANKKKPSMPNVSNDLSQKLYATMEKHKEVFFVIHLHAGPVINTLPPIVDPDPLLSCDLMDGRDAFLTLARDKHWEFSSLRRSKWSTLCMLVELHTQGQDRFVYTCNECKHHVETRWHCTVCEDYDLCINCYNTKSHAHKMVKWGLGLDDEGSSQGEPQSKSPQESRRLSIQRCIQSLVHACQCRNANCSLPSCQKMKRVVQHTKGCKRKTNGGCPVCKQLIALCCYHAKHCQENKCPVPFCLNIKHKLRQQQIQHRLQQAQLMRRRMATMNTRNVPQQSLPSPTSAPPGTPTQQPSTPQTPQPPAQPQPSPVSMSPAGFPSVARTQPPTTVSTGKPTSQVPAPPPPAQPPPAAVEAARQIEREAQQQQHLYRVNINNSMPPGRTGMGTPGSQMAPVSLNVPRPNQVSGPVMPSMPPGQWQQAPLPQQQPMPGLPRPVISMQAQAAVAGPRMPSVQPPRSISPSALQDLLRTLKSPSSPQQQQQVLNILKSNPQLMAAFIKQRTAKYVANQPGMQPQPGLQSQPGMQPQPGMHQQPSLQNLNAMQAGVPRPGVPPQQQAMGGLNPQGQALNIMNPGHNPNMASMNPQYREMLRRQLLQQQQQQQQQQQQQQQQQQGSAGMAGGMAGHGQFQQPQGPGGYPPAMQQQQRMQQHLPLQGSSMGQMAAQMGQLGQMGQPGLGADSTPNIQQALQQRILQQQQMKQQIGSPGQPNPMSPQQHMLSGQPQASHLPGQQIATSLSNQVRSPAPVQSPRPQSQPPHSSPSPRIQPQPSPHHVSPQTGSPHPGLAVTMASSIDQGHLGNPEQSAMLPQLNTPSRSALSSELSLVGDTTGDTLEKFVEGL

With “HA-tagged human thymine DNA glycosylase P65A mutant (from UniProt Q13569 1-410) (enzyme)”, the fold decrease of affinity against wild-type HA-TDG is above 3 fold.

These data come from paper PMC4411359.
